Measurements published in patent US20150004189A1.

What was measured:
HLA-DP DPB1*0402 (human) = assay: inhibition of radiolabeled peptide binding to purified HLA-DP
HLA-DP DPB1*0101 (human) = assay: as above
HLA-DP DPB1*0501 (human) = assay: as above
HLA-DP DPB1*0201 (human) = assay: as above
HLA-DP DPB1*2001 (human) = assay: as above
[1] = target: HLA-DR molecule DRB1*0162 (so in the source) (human); assay: radiolabeled-peptide competition on purified HLA class II
[2] = target: HLA DP molecule DPB1*2001 (human); assay: inhibition of radiolabeled peptide binding to purified HLA DP
[3] = target: HLA-DQ molecule DQB1*0502 (human); assay: competition: inhibition of radiolabeled peptide binding to purified HLA
[4] = target: HLA-DQ molecule DQB1*0503 (human); assay: as above
[5] = target: HLA DP molecule DPB1*1401 (human); assay: inhibition of radiolabeled peptide binding to purified HLA DP
[6] = target: HLA-DQ molecule DQB1*0602 (human); assay: competition: inhibition of radiolabeled peptide binding to purified HLA
[7] = target: HLA-DQ molecule DQB1*0202 (human); assay: as above
[8] = target: HLA DP molecule DPB1*1401 (human); assay: competition vs radiolabeled peptide, purified HLA-DP
[9] = target: HLA DP molecule DPB1*2001 (human); assay: as above
[10] = target: HLA DP molecule DPB1*0501 (human); assay: as above
HLA-DP DPB1*1401 (human) = assay: inhibition of radiolabeled peptide binding to purified HLA-DP

| Substance | IC50 (HLA-DP DPB1*0101 (human)) | IC50 (HLA-DP DPB1*0501 (human)) | IC50 (HLA-DP DPB1*2001 (human)) | also measured |
| --- | --- | --- | --- | --- |
| Aln g 1 (11-25) peptide 3324.0004 | 0.085 µM | 0.493 µM | – | IC50 (HLA-DP DPB1*0402 (human)): 1.5 µM |
| Aln g 1 (111-125) peptide 3324.0007 | 0.391 µM | 0.0033 µM | – | – |
| Alt a 1 peptide 3324.0013 (position 111) | – | – | – | IC50 [1]: 0.856 µM |
| Alt a 1 peptide 3324.0014 (position 116) | – | – | – | IC50 [1]: 0.504 µM |
| Alt a 1 peptide 3324.0015 (position 6) | – | – | – | IC50 [1]: 0.871 µM |
| Alt a 1 peptide 3324.0017 (position 11) | – | – | – | IC50 [1]: 0.956 µM |
| Alt a 1 peptide, position 6 (Peptide ID 3324.0015) | – | – | – | IC50 [2]: 2.09 µM |
| Alt a 1 peptide, position 6, Peptide ID 3324.0015 | – | – | – | IC50 [3]: 7.02 µM; IC50 [4]: 7.26 µM |
| Alt a 1 peptide, position 11 (Peptide ID 3324.0017) | – | – | – | IC50 [5]: 0.125 µM; IC50 [2]: 0.184 µM |
| Alt a 1 peptide, position 11, Peptide ID 3324.0017 | – | – | – | IC50 [3]: 8.01 µM; IC50 [4]: 0.223 µM; IC50 [6]: 0.021 µM |
| Alt a 1 peptide, position 111 (Peptide ID 3324.0013) | – | – | – | IC50 [5]: 4.37 µM |
| Alt a 1 peptide, position 111, Peptide ID 3324.0013 | – | – | – | IC50 [4]: 19.4 µM; IC50 [7]: 8.36 µM |
| Alt a 1 peptide, position 116 (Peptide ID 3324.0014) | – | – | – | IC50 [2]: 0.2 µM |
| Alt a 1 peptide, position 116, Peptide ID 3324.0014 | – | – | – | IC50 [3]: 8.97 µM; IC50 [6]: 2.23 µM |
| Alt a 1 peptide, position 141 (Peptide ID 3324.0011) | – | – | – | IC50 [5]: 3.39 µM; IC50 [2]: 8.83 µM |
| Alt a 1 peptide, position 141, Peptide ID 3324.0011 | – | – | – | IC50 [3]: 6.01 µM; IC50 [4]: 9.1 µM; IC50 [7]: 31.7 µM; IC50 [6]: 4.95 µM |
| Alt a 1 peptide, position 143 (Peptide ID 3324.0016) | – | – | – | IC50 [5]: 1.43 µM; IC50 [2]: 8.65 µM |
| Alt a 1 peptide, position 143, Peptide ID 3324.0016 | – | – | – | IC50 [3]: 7.75 µM; IC50 [7]: 7.02 µM; IC50 [6]: 0.07 µM |
| Alt a 5 peptide, position 51, … (Peptide ID 3324.0065) | – | – | – | IC50 [8]: 0.05 µM; IC50 [9]: 7.5 µM |
| Alt a 6 peptide, position 161, … (Peptide ID 3324.0073) | – | – | – | IC50 [9]: 7.64 µM |
| Alt a 7 peptide, position 6, … (Peptide ID 3324.0085) | – | – | – | IC50 [10]: 0.047 µM; IC50 [9]: 1.29 µM |
| Alt a 7 peptide, position 190, … (Peptide ID 3324.0080) | – | – | – | IC50 [8]: 0.938 µM; IC50 [9]: 0.077 µM |

| Substance | IC50 (HLA-DP DPB1*0101 (human)) | IC50 (HLA-DP DPB1*0501 (human)) | IC50 (HLA-DP DPB1*2001 (human)) | also measured |
| --- | --- | --- | --- | --- |
| Bet v 6 (211-225) peptide 3324.0386 | 1.61 µM | 1.05 µM | – | – |
| Cha o 1 (86-100) peptide 3324.0517 | – | 0.011 µM | 0.083 µM | – |
| Cla h 5 peptide, position 6, … (Peptide ID 3324.0576) | – | – | – | IC50 [9]: 0.143 µM |
| Cla h 6 peptide, position 161, … (Peptide ID 3324.0588) | – | – | – | IC50 [8]: 9.67 µM; IC50 [9]: 29.6 µM |
| Cla h 8 peptide, position 151, … (Peptide ID 3324.0603) | – | – | – | IC50 [8]: 0.036 µM |
| Cup s 1 peptide 91-105 … (Peptide ID 3324.0618) | 0.806 µM | 0.179 µM | 35.4 µM | IC50 (HLA-DP DPB1*0402 (human)): 0.075 µM |
| Dac g 2 peptide 11-25 … (Peptide ID 3324.0657) | – | – | 6.27 µM | IC50 (HLA-DP DPB1*1401 (human)): 8.1 µM |
| Dac g 2 peptide 16-30 … (Peptide ID 3324.0658) | 1.35 µM | 0.717 µM | – | IC50 (HLA-DP DPB1*1401 (human)): 32 µM |
| Dac g 4 peptide 1-15 … (Peptide ID 3324.0663) | – | 1.44 µM | – | – |
| Der f 1 (136-150) peptide 3324.0666 | 8.43 µM | – | – | – |
| Der p 1 (131-145) peptide 3324.0832 | – | – | 0.0077 µM | – |
| Der p 1 (136-150) peptide 3324.0829 | 1.21 µM | 4.93 µM | 0.449 µM | IC50 (HLA-DP DPB1*1401 (human)): 9.42 µM |
| Der p 4 (86-100) peptide 3324.0981 | – | – | 0.017 µM | IC50 (HLA-DP DPB1*0201 (human)): 0.22 µM |
| Der p 4 (251-265) peptide 3324.0976 | – | – | 0.247 µM | – |
| Der p 4 (321-335) peptide 3324.0977 | 1.64 µM | 5.07 µM | 1 µM | – |
| Der p 4 (381-395) peptide 3324.0986 | 0.324 µM | – | – | – |
| Der p 4 (411-425) peptide 3324.0980 | 0.4 µM | – | 0.0069 µM | IC50 (HLA-DP DPB1*1401 (human)): 0.703 µM; IC50 (HLA-DP DPB1*0402 (human)): 1.51 µM |
| Der p 4 (416-430) peptide 3324.0974 | 0.0091 µM | 0.013 µM | 0.0035 µM | – |
| Que a 1 peptide 11-25 … (Peptide ID 3324.1587) | 0.114 µM | 0.341 µM | – | – |
| Que a 1 peptide 141-155 … (Peptide ID 3324.1584) | 0.021 µM | 0.031 µM | 1.3 µM | IC50 (HLA-DP DPB1*1401 (human)): 0.04 µM |
| Sal k 1 1 peptide 321-335, … (Peptide ID 3324.1589) | 0.056 µM | – | 4.88 µM | – |

Second part, led by results:

| IC50 (HLA-DP DPB1*0101 (human)) | IC50 (HLA-DP DPB1*0501 (human)) | IC50 (HLA-DP DPB1*2001 (human)) | Substance | also measured |
| --- | --- | --- | --- | --- |
| – | – | 2.57 µM | Aln g 1 (16-30) peptide 3324.0003 | IC50 (HLA-DP DPB1*0201 (human)): 0.036 µM |
| 4.09 µM | – | 5.92 µM | Bet v 1 (96-110) peptide 3324.0353 | IC50 (HLA-DP DPB1*1401 (human)): 5.98 µM |
| 0.279 µM | 0.0022 µM | 13 µM | Bet v 1 (111-125) peptide 3324.0352 | IC50 (HLA-DP DPB1*1401 (human)): 7.59 µM |
| – | – | 0.0033 µM | Bet v 6 (206-220) peptide 3324.0387 | IC50 (HLA-DP DPB1*1401 (human)): 3.77 µM |
| – | 7.5 µM | 4.96 µM | Cha o 1 peptide 96-110 … (Peptide ID 3324.0523) | IC50 (HLA-DP DPB1*1401 (human)): 0.525 µM |
| 6.94 µM | – | 23.9 µM | Cup a 1 peptide 66-80 … (Peptide ID 3324.0604) | IC50 (HLA-DP DPB1*1401 (human)): 0.029 µM |
| 0.692 µM | – | 13.6 µM | Cup a 1 peptide 71-85 … (Peptide ID 3324.0607) | IC50 (HLA-DP DPB1*1401 (human)): 3.58 µM |
| 8.23 µM | – | 25.5 µM | Cup a 1 peptide 316-330 … (Peptide ID 3324.0606) | IC50 (HLA-DP DPB1*1401 (human)): 0.155 µM |
| 0.676 µM | – | 9.18 µM | Cup s 1 peptide 86-100 … (Peptide ID 3324.0615) | – |
| 2.36 µM | – | 25.7 µM | Cup s 1 peptide 96-110 … (Peptide ID 3324.0624) | – |
| – | 35.2 µM | – | Der p 1 (176-190) peptide 3324.0831 | – |
| – | 4 µM | 0.31 µM | Der p 1 (226-240) peptide 3324.0840 | IC50 (HLA-DP DPB1*0402 (human)): 0.032 µM |
| 15.5 µM | 3.45 µM | 2.93 µM | Der p 4 (96-110) peptide 3324.0987 | – |
| – | 2.23 µM | 9.01 µM | Der p 4 (386-400) peptide 3324.0978 | – |
| 0.323 µM | 0.076 µM | 0.379 µM | Der p 4 (476-490) peptide 3324.0975 | IC50 (HLA-DP DPB1*0402 (human)): 0.083 µM |
| 0.173 µM | – | 0.509 µM | Der p 4 (482-496) peptide 3324.0971 | IC50 (HLA-DP DPB1*1401 (human)): 11.4 µM; IC50 (HLA-DP DPB1*0402 (human)): 0.066 µM |
| – | – | 7.94 µM | Lol p 2 peptide 51-65 … (Peptide ID 3324.1139) | – |
| – | 12.4 µM | – | Lol p 2 peptide 56-70 … (Peptide ID 3324.1140) | – |
| 0.205 µM | 0.00025 µM | 0.223 µM | Lol p 11 peptide 111-125 … (Peptide ID 3324.1138) | – |
| – | 0.051 µM | 0.0081 µM | Lol p 11 peptide 116-130 … (Peptide ID 3337.0029) | IC50 (HLA-DP DPB1*1401 (human)): 18.1 µM |
| 0.017 µM | 0.08 µM | 0.274 µM | Que a 1 peptide 16-30 … (Peptide ID 3324.1585) | – |
| 0.141 µM | 0.242 µM | 3.49 µM | Que a 1 peptide 21-35 … (Peptide ID 3324.1588) | – |
| 0.922 µM | – | 0.558 µM | Sal k 1 1 peptide 191-205, … (Peptide ID 3324.1590) | IC50 (HLA-DP DPB1*1401 (human)): 1.92 µM |
